Results published in patent publication US20120070432A1, “TREATMENT OF PANCREATIC CANCER USING A DR5 AGONIST IN COMBINATION WITH GEMCITABINE” (AMGEN INC., priority 2009, published 2012).

How the values were obtained:
[1] = tested on: pancreatic cancer patients; details: gemcitabine alone, Moore et al.; cited from earlier work
[2] = tested on: patients with previously untreated metastatic pancreatic cancer; assay: Multi-center phase I trial of AMG 655 + gemcitabine; type: in vivo
Description: Example 2 describes the treatment of patients with metastatic pancreatic cancer with AMG 655 in combination with gemcitabine.
Conatumumab (AMG 655) is an investigational, fully human agonist monoclonal antibody (IgG1) that binds human death receptor 5 (DR5), activates caspases, and induces apoptosis in sensitive tumor cells. In a multi-center phase I trial to evaluate AMG 655 +gemcitabine in metastatic pancreatic patients. The primary endpoint was dose-limiting toxicity (DLT). Secondary endpoints included toxicity, pharmacokinetics, antibody formation, objective response rate, progression-free survival (PFS), 6-month and overall survival.
Eligible patients had previously untreated metastatic pancreatic cancer and ECOG PS (Eastern Cooperative Oncology Group Performance Status) 0 or 1. Patients were enrolled into sequential cohorts and received AMG 655 3 or 10 mg/kg IV days (D) 1 and 15 and gemcitabine 1000 mg/m^2IV D 1, 8, and 15 every 28 D. CT scans were obtained Q2 cycles.

[3] = tested on: patients with advanced solid tumors; details: cited from earlier work
[4] = dose cohorts 0.3, 1 and 3 mg/kg
[5] = of 13 patients with tumor-response data

Nc1ccn([C@@H]2O[C@H](CO)[C@@H](O)C2(F)F)c(=O)n1 [gemcitabine]
median overall survival (50% survival) [1]: approximately 6 months
survival at 1 year [1]: 17%

AMG 655: fully human monoclonal agonist antibody (IgG1) that binds human death receptor 5 (DR5); CAS Registry Number 896731-82-1
anti-AMG 655 antibodies ([2]; in combination with gemcitabine): No anti-AMG 655 antibodies were detected
effect of AMG 655 on pharmacokinetic (PK) of gemcitabine ([2]; preliminary data): no effect
DLTs ([3]; 0.3, 1, 3, 10 or 20 mg/kg IV Q2W, 16 patients): No DLTs
AMG 655-related serious AEs ([3]; 0.3-20 mg/kg IV Q2W, 16 patients): No
MTD ([3]; 0.3-20 mg/kg IV Q2W): not reached
reduction in tumor volume by RECIST ([3]; NSCLC patient with partial response): 46%
time on study of partial responder ([3]; NSCLC patient, remains on study): > 48 weeks
partial response ([3]; NSCLC, tumor-response data for 13 patients): 1 patient
grade 3 or higher AMG 655-related AEs ([3]; both in the same patient, 0.3-mg/kg cohort): Fatigue and elevated serum lipase
reduction in maximum standardized uptake value (SUVmax) ([3]; colorectal cancer patient with stable disease, metabolic partial response (FDG-PET)): 34%
half-life [3, 4]: ~240 h
kinetics (dose linearity) [3, 4]: dose-linear kinetics
anti-AMG 655 antibodies ([3]; monotherapy): No anti-AMG 655 antibodies were detected
progressive disease [3, 5]: 8 patients
stable disease [3, 5]: 4 patients
patients reporting AMG 655-related AEs ([3]; of 16 patients): Nine
treatment-related AE: fatigue ([3]; of 16 patients): 3 patients
treatment-related AE: hypomagnesaemia ([3]; of 16 patients): 3 patients
treatment-related AE: pyrexia ([3]; of 16 patients): 4 patients
tolerability ([3]; up to 20 mg/kg Q2W): well tolerated
